In the assay the target is recombinant hsc70 (Stressgen, Victoria, Canada). The assay can be described thus: competition ELISA on coated hsc70 against biotinylated-2702.75-84 (3 uM). For orientation: ELISA stands for enzyme-linked immunosorbent assay.

Where no end group is shown, it is not given here.

A word on the IC50: it is the concentration that gives 50% inhibition. With RENLRIALRY-NH2 (also: acetate salt) [peptide 2702.75-84], the IC50 was found to be 7 µM.
